Data on 1 molecule can be found in patent US11857609B2, “Ocular delivery of cell permeant therapeutics for the treatment of retinal edema” (The Trustees of Columbia University in the City of New York, dated 2024).

The target in test [1] is T1, activated (cleaved) caspase-9 from mouse retina (mouse, UniProt Q8C3Q9). The test is described as follows: co-immunoprecipitation from mouse retina lysates after RVO and Pen1-XBIR3: anti-His IP, western blot for clCasp9, 4 h. The text has this:
(§1) To show target engagement, after RVO, mice were given Penl-XBIR3 and retinas were harvested and immunoprecipitated with anti-His followed by western blot for clCasp9 (FIG. 5, right panel).
Background: In western blotting, separated proteins are transferred to a membrane and probed.

The target of test [2] is T1, activated (cleaved) caspase-9 from …. The experiment in a line: co-immunoprecipitation from mouse retina lysates after RVO and Pen1-XBIR3: anti-His IP, western blot for clCasp9, 24 h.
Excerpt: as §1

B1: Penetratin1-XBIR3 conjugate (other)
chain 1: CRQIKIWFQNRRMKWKK
chain 2: MGSSHHHHHHSSGLVPRGSHMSTNTCLPRNPSMADYEARIFTFGTWIYSVNKEQLARAGFYTDWALGEGDKVKCFHCGGGLRPSEDPWEQHARWYPGCRYLLEQRGQEYINNIHLTHS
modifications: N-terminal C(NPys) as printed; linked to XBIR3 by a disulfide bond (-s-s-); linked to Penetratin1 by a disulfide bond
As for B1, the “fold increase in binding” value was 21 fold in test [1] and 45 fold in test [2].
